B1: POU domain, class 3, transcription factor 2, residues 262 to 338; numbered along this chain, P20265 (parent)
chain: EDTPTSDDLEQFAKQFKQRRIKLGFTQADVGLALGTLYGNVFSQTTICRFEALQLSFKNMCKLKPLLNKWLEEADSS
B2: RUN and FYVE domain-containing protein 1, residues 639 to 698; numbered along this chain, Q96T51 (parent)
chain: WLKDDEATHCRQCEKEFSISRRKHHCRNCGHIFCNTCSSNELALPSYPKPVRVCDSCHTL

Variants of: B1
Assay: abundance fitness (aPCA) (normalised: wild type 0, dead -1); higher = more abundant; growth selection in yeast, the domain comes from the species named
Conditions: Homo sapiens

Abundance fitness, by site and new letter:
P4: I 0.096, C 0.108, G -0.01, A -0.03, L 0.164, K 0.063, D 0.029, H 0.075, E 0.002, F 0.149
D2: H 0.015, R -0.03, S 0.013, I 0.023, V -0.176, P -0.153, C -0.124, T 0.039, F -0.133, Q 0.054, K -0.031, E -0.047
E1: M 0.05, F 0.231, L -0.109, C -0.035, K -0.105, S -0.164, P 0.085, Q -0.088, W -0.191, N 0.124, G -0.031, T -0.006, A -0.108, D -0.014, I -0.066, Y -0.177
T3: M 0.117, Q -0.091, R -0.086, P -0.205, S -0.042, Y -0.029, A -0.365, C 0.009, E -0.218, K -0.023, D -0.324, W -0.202, I 0.094, G -0.342, L -0.086, N -0.203, F -0.142

Variants of: B2
Assay: as above
Conditions: Homo sapiens

Abundance fitness, by site and new letter:
E41: A -0.182, R -0.151, Y -0.126, P -0.418, N -0.184, D -0.173, C -0.11, I -0.335, L -0.18, M -0.134, S -0.155, T -0.11, G -0.522, Q -0.056, V -0.063, K -0.038, H -0.195, W -0.384
V51: P -0.403, K -0.636, I -0.249, D -0.879, R -0.474, W -0.535, S -0.345, M -0.244, E -0.301, C -1.01, Q -0.17, G -0.55, Y -0.562, L -0.353, A -0.047, N -0.695, T 0.184, F -0.571, H -0.945
C54: R -0.278, G -0.731, Y -0.845
P50: A 0.05, K 0.023, H -0.347, S -0.253, G -0.118, D -0.295, E -0.078, F -0.211, N -0.043, M -0.162, Y -0.219, V -0.074, I -0.807, L -0.085, Q -0.219, R -0.185, T -0.233, C -0.128, W -0.549
L44: P -0.326, N -0.388, R -0.445, W -0.375, K -0.384, Q -0.3, H -0.295, Y -0.271, M -0.077, E -0.376, T -0.127, C -0.389, V -0.236, A -0.3, D 0.138, S -0.454, F -0.196, G -0.166
V53: I -0.385
P48: F -0.818, E 0.118, H -0.192, Y -0.582, I -0.419, K -0.178, N -0.324, R -0.308, M -0.309, Q -0.051, A -0.167, W -0.484
S46: A 0.16, R 0.19, K 0.181, C -0.133, V -0.265, G 0.243, W 0.077, P 0.069, Q 0.009, D 0.365, M 0.086, F -0.01, H -0.004, L 0.151, E 0.402, N 0.252, Y -0.2
A43: G -0.124, I 0.019, K -0.071, W -0.405, N 0.034, R -0.054, C -0.128, L 0.058, V 0.008, M 0.021, Y -0.366, P 0.001, T -0.045, S -0.188, Q -0.008
Y47: V -0.026, M -0.134, P -0.433, F -0.05, D 0, Q -0.14, I -0.197, G -0.045, N 0.019, E -0.062, R -0.345, A 0.014, S -0.081, K -0.262, L -0.069, W -0.382, H 0.09
N40: Y -0.906
K49: E -0.083, D -0.001, A -0.327, H -0.11, R 0.016, Q -0.192, C -0.133, Y -0.34, F -0.342, G -0.057, S -0.09, N 0.012, P -0.72, T -0.212, V -0.14, I -0.32, W -0.327, M -0.298
H58: M -0.109, L -0.114, N -0.242, P -0.667, V 0.037, A -0.1, Q 0.065, R -0.147, K -0.091, G -0.203, S -0.179, W 0.022, F -0.105, I -0.157, C -0.365, D -0.495, E -0.062, T -0.226
L42: P -0.606, F 0.034, V 0.092, M -0.046, C 0.045, T -0.071, N -0.317, D 0.184, G -0.026, Q 0.295, Y -0.151, A 0.11, W -0.014, H 0.118, S 0.096, I 0.214, R 0.227
D55: T -0.602, Y -0.31
P45: H -0.022, Y -0.425, I -0.162, D -0.035, K 0.091, C -0.325, T 0.047, M -0.073, E -0.081, A -0.277, Q 0.162, R 0.009, N 0.017, G -0.204, S 0.027, V -0.13, L -0.19
T59: N -0.058, D 0.062, P -0.281, A 0.263, H -0.148, K 0.144, V 0.127, I -0.033, Y -0.183, E 0.026, G 0.161, S 0.052, F -0.207, L -0.048, M 0.019, Q 0.328, C -0.051
L60: P -0.404, C -0.625, E 0.031, H -0.293, N -0.126, K 0.023, Y -0.422, S -0.067, V -0.202, F -0.163, I 0.094, Q 0.101, G 0.229, W -0.366, M -0.194, A 0.036, T -0.087
S56: Q 0.319, F 0.271, N 0.246, T 0.284, A 0.21, H 0.355, D 0.097, Y 0.188, C 0.03, K 0.232, M 0.165, E 0.331, G 0.3, I 0.136, P 0.24, W 0.033
C57: D -0.619, V -0.665, L -0.475, H -0.957, A -0.756, Q -0.409, I -0.88, R -0.673, K -0.613, S -0.716, G -0.53, E -0.711, T -0.467, P -0.697, W -0.682, Y -0.828, F -0.794

From the Human Domainome abundance scans (Beltran et al. 2025)
